Results on one sequence are retold here after article PMC10968536.

Data set [1] relates to HalTzlTCCCAG (synthetic (no organism)). The data set is described as follows: fluorescence anisotropy. The settings on record: Fluorescence anisotropy: 100 nM FAM-TAR in TB buffer, 25 °C, 20 min, ex 480/em 518 nm, one-site fit; CD: 5 µM TAR with 50 µM nucleopeptide (Methods; abstract …). For orientation: In fluorescence polarisation assays a small probe gives low polarisation when free and higher when bound to something large.

Data set [2] has as its system HalTzlAGA (synthetic (no organism)). As to the kind of experiment: fluorescence anisotropy. The conditions noted are these: Fluorescence anisotropy: 100 nM FAM-TAR in TB buffer, 25 °C, 20 min, ex 480/em 518 nm, one-site fit; CD: 5 µM TAR with 50 µM nucleopeptide (Methods; abstract …).

pKd: −log10 of the molar value.

As usually defined, the pKd is the Kd on a negative log10 scale, so that one unit is a factor of ten. Low readings indicate a large Kd, high ones a small Kd. As to “CCAGAUCUGAGCCUGGGAGCUCUCUGG [5'-FAM(6)-TAR UCU]”, the pKd in data set [1] was 4.42; in data set [2] it was 3.59.
